Literature values, collected in publication PMC7862380.

Assays:
[1] = target: Met1-linked di-ubiquitin (Homo sapiens) (UniProt P0CG48)
[2] = target: Lys63-linked di-ubiquitin (Homo sapiens) (UniProt P0CG48)

OTULIN, sequence (Q96BN8 whole entry): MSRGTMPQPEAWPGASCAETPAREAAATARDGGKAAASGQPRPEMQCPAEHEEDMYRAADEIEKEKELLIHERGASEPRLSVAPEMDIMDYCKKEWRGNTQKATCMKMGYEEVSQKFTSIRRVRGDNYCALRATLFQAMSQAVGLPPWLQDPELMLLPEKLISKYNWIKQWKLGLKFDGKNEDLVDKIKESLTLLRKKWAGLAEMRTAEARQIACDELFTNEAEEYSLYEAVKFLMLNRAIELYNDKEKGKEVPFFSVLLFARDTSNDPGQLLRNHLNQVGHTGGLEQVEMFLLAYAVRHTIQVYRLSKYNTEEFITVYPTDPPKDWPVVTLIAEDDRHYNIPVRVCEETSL

Kd [1]: 0.12 µM
Kd [2]: 12 µM
Substance: OTULIN (from UniProt Q96BN8)
